Reference: the domain aggregation screens of Martell et al. (2025)

experiment: soluble fraction after stress (log2 fold change); higher = more stays soluble; pooled small domains, quantitative proteomics; conditions: stress: pH 4
Method in brief: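 With high-throughput quantitative proteomics, pooled custom libraries of small protein domains were measured after pH 4 stress. Each domain's soluble amount after the stress gives a fold change taken as aggregation propensity. Higher log2 values mean more of the domain stayed soluble.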

| Sequence | soluble fraction (log2) |
| --- | --- |
| HMSNNENSILEKLNSFSGKKIKVSHTIGSLAARLDEYPKIKMWLYKRIRENSINEQAYKYLIFIIERKVR | -0.0495 |
| HMKSAYADVAIAKVQDYVNVRAENNEDSEVLGKLYNNSAATVLETTDDGWYKISSGSVTGYVKSEYVVVG | -1.04 |
| HMDREQLELYVGEVRVLQVGELRRIAIGNGKVLQASALDRGQLLLIPEAPGQSVLYLWTRDGTERHLSISV | -0.81 |
| HMAPPIQQQVESLMNSFAKIGVTVPMLESRLQHAMSAVTANELVMLRKIGASIRDGFATVAEQFPA | 0.0598 |
| HMVKIVWSKEGPYVGTRVRRYFSQGPVDGTVVMYAKPQKGDDVALWRISHDDGDEEDLEEQELRLAID | -1.69 |
| HMVDVNLLKYYVMESGKSLTDVAAAIGVTPATLHRKMSGESDFYRKEMQDIASYLGLDRDTIDRIFF | -0.892 |
| HMESVTETFLTNLINRYIADKAGYIISYPSEYRIEVLYHGGQVLDYENLRKSINTYIPAHIGYKLVTI | -0.158 |
| HMNESADMPDVVNMSLEAAKSQLEGMGLKVKVENVEDDSVEENHVIKTSPVSGEKVKLGTTVTLTVSKGR | -0.279 |
| HMDPQDGTVKFFNGARGFGFITPDGGGADVFVHVSAVERAGLTQLVEGQRVNFQTLPDTKGKGPKAVNLKV | -0.531 |
| HMGTTKGVVDVTVPNGRASQHVKLVVIDDDGGRVVYDGTNAPGDRIVKSVSGSGNVRVQIYLNNALVQEQS | -0.306 |
| HMQDLEIKINLGMTYYEVREAIGSPDIIDKINQYGRDFQMWTYYIDDKTKRYYFEDHLLTKI | -1.65 |
| HMREPDPELTASIKSMAESNDQSERLVALAQLSEQRAVDPEVADQILLIALLDEDPIIRGQAVYA | 0.0401 |
| HMNERTKIPLRKIEIGQAVYVDTLEKVGTVIDIQGKQFKVDLAGLPITVAARNLFYPLPQEAKP | -0.0254 |
| HMKFTELEQLMLKREINTLADIARVLKTTPQAVSNWKARDQIPYHIVAKINASINKDSNDSSLSI | -0.782 |
| HMLLQTRQRHEALAALGYFKGDVAAAWGPASEEALRAAQAAFGITVDGKWGPQTEDAIQGALQV | -0.701 |
| HMIFSIIPGQIRLTKMEIADGYLVLYGFTPSKEIYNLHLNPALKSIFTSSETSFIPVSGGLKFMSTNKL | -0.442 |
| HMAVENTGLSKRELEILQMMARGMSNQEIGDALFISLSTVKTHVASIFSKLQAVRRTQAVGIAKSLKII | -0.367 |
| HMDDISLEEIKYISSKLETKVNEIEELLVRYYDGETNEAEEKELKEFFAQADVPAHLLAEKRLFMQLASQ | -0.324 |
| HMGEKTLSEKVYDRLKELIMDGELERGTKITETSIAKMFDVSPTPVREAFRKLASDGLIEVASWKGVIVKG | 0.338 |

| Sequence | soluble fraction (log2) |
| --- | --- |
| HMGMAGILDSARMASFIQEKLGYGGGQIRASVMGGHGDDMVPLPRYSTVAGVPLSDVLTQNEIDEMFAQ | -0.259 |
| HMTDDALIGKTAQVTVAIKPGSVGQITARVGDERVERLARASADAEIAAGSLVTIKSIAGDSVIVAPE | 0.22 |
| HMFMKNTEVALAIKGKFSNQTTITSKELVLFLSDLFPELSNKTIPWKINQLKAENLIYQTGRGIYTFN | -0.809 |
| HMVQVRQPAGAGDLFAKGRLHLSTGTIHTVKPLEVDLPKGRLTVVTGVSGSGKTTLILESLLPALAAAAA | 0.307 |
| HMNGKPDMTPIPAGSRNNDLHAWAYGRLLNHPDNAEAIRRDLFERGQTSGLKESELETIWQSIRRQLGGD | 0.126 |
| HMFKNWMPFDEARIFVRKLKFNSHDEFRKYLKANEINIPSKPWSTYKGKGWVSIGDFLGTHR | -0.308 |
| HMDPDARQDAEVWLLDFLSAGPRTAQEIFTAARVEGHTRVTVKRAKATAGIQSVKQDFDGPWVWVLPGSG | -0.932 |
| HMSELDASYLGQRVRYVSGFTETDPSEGLVEFRGSNWRARAEHPPLDHSGHWVIVKVESNTLWVEEKSN | 0.0761 |
| HMDDFGERLRKLRVAQDLTQQQLGEKLGVVPSTIGKYEKVKDSYPSIEVLIKLSDFFSVSTDYLLKG | -0.905 |
| HMNALNDLESKIFEEVVKAPEIIMNMTIREFASTVHASPTTIVRMTHKLGFSGWNELKTYLQKQKHQIS | -0.0849 |
| HMPGLITLEAAKTTALNHAKLTADQVTFVKQKLDRDDGRQVYEIEFYTSDYKEYDYEIDAVSGLILEVDYD | -0.33 |
| HMNTIFSVNGPVVKVKDTKDFSMMEMVYVGEKKLIGEVIGITESFTTIQVYEVTTGLKVGEPVYTTGAPM | 0.166 |
| HMNNENELSSIISKVLEENPAEKERFLNGEKKLAGFFMGKIMKATKGTADPKKAAQLLNEIL | 0.271 |
| HMRFKPLAEILAAVQTRYAGRVLDVELDRDQAGRNVYEVKLLAADGSRREIHIDAVTGKEVSL | 0.178 |
| HMLINPLDILRNFNLSLYDDSRDSASNKEIDEIFESIKTNNSHIFSTLKAYRIPLPIASLIIKKIIKITLE | -0.882 |
| HMPRPLVAPMPGLIVRVTAVVGDSVDAGQGLVVMEAMKMENELRTTTAGVVKTVHVQPGVAVEKGALLIEF | -0.766 |
| HMWAQSVSLHGLLGRQALLIVDGKPPRAVAPGQTHLGVTVLSTDEDRAVVALAGGQRLTLRVGESPVSVG | 0.264 |
| HMEEDPILVAQRFLNIFRQLHIFDQQRREEFNSMILALPPEIRGTFGVLPGGSVLQEYVDELEISKGMA | -1.33 |
